Target: T1, C-reactive protein (CRP) (human, UniProt P02741 19-224)
T1 sequence: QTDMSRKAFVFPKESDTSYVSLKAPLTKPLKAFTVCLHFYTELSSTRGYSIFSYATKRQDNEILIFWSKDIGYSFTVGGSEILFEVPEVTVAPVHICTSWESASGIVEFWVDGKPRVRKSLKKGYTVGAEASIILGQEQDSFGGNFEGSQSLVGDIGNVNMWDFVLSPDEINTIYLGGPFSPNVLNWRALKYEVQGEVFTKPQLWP
Assay: competition

B1: CRP-aptamer (40-mer) (ssDNA)
DNA: CGAAGGGGATTCGAGGGGTGATTGCGTGCTCCATTTGGTG
modifications: 5'-biotin-(CH2)6
binding result: binds

— publication PMC9073860
